# B1: CPEB3 Ribozyme (parent)
# chain: GGGGGCCACAGCAGAAGCGUUCACGUCGCGGCCCCUGUCAGAUUCUGGUGAAUCUGCGAAUUCUGCUGU
# Variants of: B1
# Assay: self-cleavage, relative activity (ratio to wild type); higher = more cleavage; co-transcriptional
row,Variant,self-cleavage
1,GGGGGCCACAGCGGAAGCGUUCACGUCGCGGCCCCUGUCAGAUUCUGGUGAAUCUGGGAAUUCUGCUGU [A13G C57G],0.36
2,GGGGGCCACAGCGGAAGCGUUCACGUCGCGGCCCCUGUCAGAUUCUGGUGAAUCUGUGAAUUCUGCUGU [A13G C57U],0.358
3,GGGGGCCACAGCGGAAGCGUUCACGUCGCCGCCCCUGUCAGAUUCUGGUGAAUCUGCGAAUUCUGCUGU [A13G G30C],0.711
4,GGGGGCCACAGCGGAAGCGUUCACGUCGCAGCCCCUGUCAGAUUCUGGUGAAUCUGCGAAUUCUGCUGU [A13G G30A],0.856
5,GGGGGCCACAGCGGAAGCGUUCACGUCGCGGCCCCUGUCAGAUUCUGGAGAAUCUGCGAAUUCUGCUGU [A13G U49A],0.95
6,GGGGGCCACAGCGGAAGCGUUCACGUCCCGGCCCCUGUCAGAUUCUGGUGAAUCUGCGAAUUCUGCUGU [A13G G28C],0.18
7,GGGGGCCACAGCGGAAGCGUUCACGUCUCGGCCCCUGUCAGAUUCUGGUGAAUCUGCGAAUUCUGCUGU [A13G G28U],0.15
8,GGGGGCCACAGCGGAAGCGUUCACGUCGCGGCCCCUGUCAGAUUCUGUUGAAUCUGCGAAUUCUGCUGU [A13G G48U],0.914
9,GGGGGCCACAGCGGAAGCGUUCACGUCGCGGCCCCUGUCAGAUUCUGAUGAAUCUGCGAAUUCUGCUGU [A13G G48A],0.968
10,GGGGGCCACAGCGGAAGCGUUCACGUCGCGGCCCCUGUCAGAUUCUGGUGAAGCUGCGAAUUCUGCUGU [A13G U53G],0.737
11,GGGGGCCACAGCGGAAGCGUUCACGUCGCGGCCCCUGUCAGAUUCUGGUGAACCUGCGAAUUCUGCUGU [A13G U53C],0.628
12,GGGGGCCACAGCGGAAGCGUUCACGUCGCGGCCCCUGUCAGAUUCUGGUGAAACUGCGAAUUCUGCUGU [A13G U53A],0.87
13,GGGGGCCACAGCGGAAGCGUUCACGUCGCGGCCCCUGUCAGACUCUGGUGAAUCUGCGAAUUCUGCUGU [A13G U43C],0.785
14,GGGGGCCACAGCGGAAGCGUUCACGUCGCGGCCCCUGUCAGAGUCUGGUGAAUCUGCGAAUUCUGCUGU [A13G U43G],0.539
15,GGGGGCCACAGCGGAAGCGUUCACGUCGCGGACCCUGUCAGAUUCUGGUGAAUCUGCGAAUUCUGCUGU [A13G C32A],0.773
16,GGGGGCCACAGCGGAAGCGUUCACGUCGCGGUCCCUGUCAGAUUCUGGUGAAUCUGCGAAUUCUGCUGU [A13G C32U],0.916
17,GGGGGCCACAGCGGAAGCGUUCACGUCGCGGGCCCUGUCAGAUUCUGGUGAAUCUGCGAAUUCUGCUGU [A13G C32G],0.318
18,GGGGGCCACAGCGGAAGCGUUCACCUCGCGGCCCCUGUCAGAUUCUGGUGAAUCUGCGAAUUCUGCUGU [A13G G25C],0.135
19,GGGGGCCACAGCGGAAGCGUUCACUUCGCGGCCCCUGUCAGAUUCUGGUGAAUCUGCGAAUUCUGCUGU [A13G G25U],0.118
20,GGGGGCCACAGCGGAAGCGUUCACAUCGCGGCCCCUGUCAGAUUCUGGUGAAUCUGCGAAUUCUGCUGU [A13G G25A],0.186

row,Variant,self-cleavage
1,GGGGGCCACAGCGGAAGCGUGCACGUCGCGGCCCCUGUCAGAUUCUGGUGAAUCUGCGAAUUCUGCUGU [A13G U21G],0.355
2,GGGGGCCACAGCGGAAGCGUACACGUCGCGGCCCCUGUCAGAUUCUGGUGAAUCUGCGAAUUCUGCUGU [A13G U21A],0.966
3,GGGGGCCACAGCGGAAGCGUCCACGUCGCGGCCCCUGUCAGAUUCUGGUGAAUCUGCGAAUUCUGCUGU [A13G U21C],0.74
4,GGGGGCCACAGCGGAAGCGUUCACGUCGCGGCCCCUAUCAGAUUCUGGUGAAUCUGCGAAUUCUGCUGU [A13G G37A],0.172
5,GGGGGCCACAGCGGAAGCGUUCACGUCGCGGCCCCUCUCAGAUUCUGGUGAAUCUGCGAAUUCUGCUGU [A13G G37C],0.109
6,GGGGGCCACAGCGGAAGCGUUCACGUCGCGGCCCCUUUCAGAUUCUGGUGAAUCUGCGAAUUCUGCUGU [A13G G37U],0.184
7,GGGGGCCACAGCGGAAGCGUUCACGUCGCGGCCCCUGUCAGAUUCUGGUGAAUCUGCGAAUUCUGGUGU [A13G C66G],0.489
8,GGGGGCCACAGCGGAAGCGUUCACGUCGCGGCCCCUGUCAGAUUCUGGUGAAUCUACGAAUUCUGCUGU [A13G G56A],0.934
9,GGGGGCCACAGCGGAAGCGUUCACGUCGCGGCCCCUGUCAGAUUCUGGUGAAUCUUCGAAUUCUGCUGU [A13G G56U],0.742
10,GGGGGCCACAGCGGAAGCGUUCACGUCGCGGCCCCUGUCAGAUUCUGGUGAAUCUCCGAAUUCUGCUGU [A13G G56C],0.421
11,GGGGGCCACAGCGGAAGCGUUCACGUCGCGGCGCCUGUCAGAUUCUGGUGAAUCUGCGAAUUCUGCUGU [A13G C33G],0.638
12,GGGGGCCACAGCGGAAGCGUUCACGUCGCGGCCCCUGUCAGAUUCUGGUGAAUCUGCAAAUUCUGCUGU [A13G G58A],0.902
13,GGGGGCCACAGCGGAAGCGUUCACGUCGCGGCCCCUGUCAGAUUCUGGUGAAUCUGCCAAUUCUGCUGU [A13G G58C],0.878
14,GGGGGCCACAGCGGAAGCGUUCACGUCGCGGCCCCUGUCAGAUUCUGGUGAAUCUGCUAAUUCUGCUGU [A13G G58U],1.01
15,GGGGGCCACAGCGGAAGCGUUCACGUCGCGGCCCGUGUCAGAUUCUGGUGAAUCUGCGAAUUCUGCUGU [A13G C35G],0.446
16,GGGGGCCACAGCGGAAGCGUUCACGUCGCGGCCCCUGUCAGAUUCUGGUUAAUCUGCGAAUUCUGCUGU [A13G G50U],0.973
17,GGGGGCCACAGCGGAAGCGUUCACGUCGCGGCCCCUGUCAGAUUCUGGUCAAUCUGCGAAUUCUGCUGU [A13G G50C],0.881
18,GGGGGCCACAGCGGAAGCGUUCACGUCGCGGCCCCUGUCAGAUUCUGGUAAAUCUGCGAAUUCUGCUGU [A13G G50A],0.896
19,GGGGGCCACAGCGGAAGCGUUCACGUCGCGGCCCCUGUCAGAUUCAGGUGAAUCUGCGAAUUCUGCUGU [A13G U46A],1.02
